# Test results from patent publication US11492376B2, “Toxoplasma gondii GRA8-derived recombinant peptides and composition for preventing or treating cancer comprising the same” (Industry—University Cooperation Foundation Hanyang …, priority 2019, dated 2022).
# Assay: Immunogenicity: specific IgG by ELISA in immunized mice
# Details: immunized BALB/C mice, OD 450 nm
# Experimental: Immunoblotting was performed with anti-PKCα, anti-ATP5A1, anti-SIRT3 or anti-actin. […] (B) The schematic diagram of a xenograft model treated with rVector (upper). HCT116-expressing ATP5A1 WT and mutant cells were subcutaneously injected into the flank of nude mice. […] Each group included 10 mice. […] (C) Humoral immune responses in BALB/C mice. The mice were immunized via each route (intravenous injection or intraperitoneal injection) every third day, and subjected to blood collection on day 40. […] The values are expressed as mean±standard deviation for absorbance (OD) at 450 nm. Each group included five mice. (D) Cytokine response for rATRAM-GRA8-M/AS in tumor-bearing mice. As described in the method section, HCT116 cells were subcutaneously injected into the flank of a BALB/c mouse. A serum cytokine level was measured on day 30 after administration. Each group included 10 mice.
# Since immunogenicity is closely related with safety and efficacy, it is one of the critical factors for development of therapeutic proteins. Therefore, by monitoring the production of antibodies against rATRAM-GRA8-M/AS in immunized mice, the immunogenicity of rATRAM-GRA8-M/AS was investigated. After three consecutive injections of rATRAM-GRA8-M/AS, a level of IgG antibody was analyzed using enzyme-linked immunosorbent assay (ELISA).
molecule,measurement,value
"(GLAGLAGLLGLEGLLGLPLGLLEGLWLGLELEGN)2-GG-ATATTTTTTR-GG-YRFTVQTTQN (protein, His tag; rATRAM-G8-M/AS) GLAGLAGLLGLEGLLGLPLGLLEGLWLGLELEGNGLAGLAGLLGLEGLLGLPLGLLEGLWLGLELEGNGGATATTTTTTRGGYRFTVQTTQN",level of specific IgG antibody,negligible
